Legend:
Test in all cases: cell-based or functional assay
[1] = target: squirrel monkey prokineticin receptor 2 (PKR2) (squirrel monkey)
[2] = target: chimpanzee prokineticin receptor 2 (PKR2) (chimpanzee (Pan troglodytes))
[3] = target: rhesus monkey prokineticin receptor 1 (PKR1) (rhesus monkey)

Row | Substance | calcium mobilization (aequorin luminescence) in transiently transfected CHO cells [1] [nM] | calcium mobilization (aequorin luminescence) in transiently transfected CHO cells [2] [nM] | calcium mobilization (aequorin luminescence) in transiently transfected CHO cells [3] [nM]
1 | recombinant human PK1 (prokineticin 1) (from UniProt P58294 20-101) (ligand) | 10 | – | –
2 | recombinant human PK2 (prokineticin 2) (from UniProt Q9HC23 28-129) (ligand) | – | 10 | 10
